Assay: soluble on expression in E. coli; label from the status in PepcDB or PDB records

Row | Sequence | soluble on expression in E. coli
1 | MAENRNRKPSDSQVDAIKVPPHSLEAEQSVIGGLLLDNERWDTVAERVVASDFYSRPHRLIFEGVKTILESGKPLDLITLSEHLERHEQLEDVGGFAYLADLAKNTPSAANINAYADIVAERAIVRGLIGVANEIADAGYDPQGRSSEDLIDMAESKVFAIAESRTSENEGPQNVDNILEKTLERIELLYKTPQDGVTGVDTGFTDLNKKTAGLQGSDLVIVAARPSMGKTTFAMNLCENAAMQQDKPVLIFSLEMPAEQLMMRMLASLSRVDQTKIRTGQLDDEDWARISSTMGILMQKKNMYIDDSSGLTPTEVRSRARRVAREHGGLSMIMVDYLQLMRVPSLTDNRTLEIAEISRSLKALAKELNVPVVALSQLNRSLEQRADKRPVNSDLRESGSIEQDADLIMFIYRDEVYHPDSPYKGTAEIIIGKQRNGPIGSVRLTFQGQHSRFDNYAGPAFDIDDE | not soluble
2 | MAEQISHKKSLRVSSLNKDRRLLLREFYNLENEPNKGRQEARIGEKASEAHSGEEQVTDVNIDTEANTEKPVKDDELSATEEDLKEGSEDAEEEIKNLPFKRLVQIHNKLLGKETETNNSIKNTIYENYYDLIKVNDLLKEITNANEDQINKLKQTVESLIKEL | soluble
3 | MAESRRKYYFPDVTDEQWNDWHWQVLNRIETLDQLKKYVTLTAEEEEGVKESLKVLRMAITPYYLSLIDPENPNCPIRKQAIPTHQELVRAPEDQVDPLSEDEDSPVPGLTHRYPDRVLFLITDKCSMYCRHCTRRRFAGQKDASSPSERIDRCIDYIANTPTVRDVLLSGGDALLVSDERLEYILKRLREIPHVEIVRIGSRTPVVLPQRITPQLVDMLKKYHPVWLNTHFNHPNEVTEEAVEACERMANAGIPLGNQTVLLRGINDCTHVMKRLVHLLVKMRVRPYYIYVCDLSLGIGHFRTPVSKGIEIIENLRGHTSGYAVPTFVVDAPGGGGKIPVMPNYVVSQSPRHVVLRNYEGVITTYTEPENYHEECDCEDCRAGKHKEGVAALSGGQQLAIEPSDLARKKRKFDKN | soluble
4 | MAEVERQDKYLRQRNKYRFHIIPDGNCLYRAVSKTVYGDQSLHRELREQTVHYIADHLDHFSPLIEGDVGEFIIAAAQDGAWAGYPELLAMGQMLNVNIHLTTGGRLESPTVSTMIHYLGPEDSLRPSIWLSWLSNGHYDAVFDHSYPNPEYDNWCKQTQIQKKRDEELAKSMAISLSKMYIEQNACS | soluble
5 | MAEVLMYGLSTCPHCKRTLEFLKREGVDFEVIWIDKLEGEERKKVIEKVHSISGSYSVPVVVKGDKHVLGYNEEKLKELIRG | soluble
6 | MAFAIASALTSTLTLSTSRVQNPTQRRPHVASTSSTGGRLMRERLVVVRAGKEVSSVCEPLPPDRPLWFPGSSPPEWLDGSLPGDFGFDPLGLGSDPDTLKWFAQAELIHSRWAMLAVTGIIIPECLERLGFIENFSWYDAGSREYFADSTTLFVAQMVLMGWAEGRRWADLIKPGSVDIEPKYPHKVNPKPDVGYPGGLWFDFMMWGRGSPEPVMVLRTKEIKNGRLAMLAFLGFCFQATYTSQDPIENLMAHLADPGHCNVFSAFTSH | soluble
7 | MAFDISAQDPFSILIAGVDSREDTHAGRSDTLIVLTVNPKEESIKMLSIPRDTRTEIVGRGTDDKINHAYAFGGAQMTIDTVENFLDIPIDHYVSINMDGFTQLVDALGGVSVENSFAFSQNGYQFEEGEIFLETGDEALAYARMRKQDSRGDFGRNDRQRQIVEAVIKQSAQFSSITKAGAILDAVGESVRTDLQLDGMWELQSNYRGAAKNIEQLEITGEGTRINNIYYLIIPQEEIARVQGELKSHLELSLEHHHHHH | soluble
8 | MAFGRRTGKDGGKRKAGHAPVQPADEHVRPEDTVVASAAAASGVEDQEELQGPFDIDDFDDPSVAVLARLDLGSVLIPMPAAGQVQVELTESGVPSAVWVITPNGRYSIAAYAAPKTGGLWREVAGELADSLRKDSAKVSIKDGPWGREVIGIAAGVVRFIGVDGYRWMIRCVVNGPQETVDALTEEAREALADTVVRRGDTPLPVRTPLPVHLPEPMAAQLREAAAAQADTQRQAAAGVARRGAQGSAMQQLRSTTGG | soluble

From the DeepSol protein solubility set
